Patent US20250027068
Substitutions are numbered along the chain they refer to.

B1: PRT-51 (protein)
chain: MANQEIRYSEVTPYHVTSVWTKGVTPPANFTQGEDVFHAPYVANQGWYDINKTFNGKDDLLCGAATAGNMLHWWFDQNKDYIDRYLKKHPEKAKINFNGEQMFDVKEAIDTKNDQLDSKLFEYFKEKAFPYLSTKHLGVFPDLVLDMFINGYRLSLTNHGPTPVKEGSKDPRGGFFDDVFTRGDQSKLLTSRHDFKEKNLEEISDLIKKELTEGKALGLSHTYANVRINHVINLWGADFDENGNLKAIYVTDSDSNASIGMKRYFVGVNSAGKVAISAKEIKEDNIGAQVLGLFTLSTGQDSWNQTN
B2: PRT-56 (protein)
chain: B1 chain with D80E, K87E, K88E, A93Q, D114H, D178A, E201K, E241S, I259V, R263K
B3: PRT-57 (protein)
chain: B1 chain with K87E, K88E, A93Q, D114H, L145I, D178A, T181G, E201K, E241S, R263K
B4: PRT-58 (protein)
chain: B1 chain with D80E, K88E, A93Q, D114H, E201K, E241S, R263K
B5: PRT-572 (protein)
chain: MANQEIRYSEATPSHITSVWTKGVTPPTQFIQNEDVLHAPYIANQGWYDITKTFNGKDDLLCGAATAGNMLHWWFDQNKEQIENYLKKHPEKQKINFNGEQMFDVKEAIDTKDSQTDSALFSYFKDKAFPYLSTKHLGVFPDHVIDMFINGYRLSLTNHGPTPVKEQTKDPRGGIFDAVFTRGDQSKLLTSRHDFKEKTLNEISQLIKQELTEGKALGLSHTYANVRINHVINLWGADFNAEGNLEAIYVTDSDSNASIGMKKYYVGVNSAGKVAISAKEIEGDNIGAQVLGLFTLSTGQDIWQQTNLEHHHHHH
B6: PRT-678 (protein)
chain: MQITTVWTKGVTPLTPEQFRYNNEEVIHAPYKAGQGWYDITKVFDGKDNLLCGAATAGNMLHWWFDQNKTEIEAYLSKHPEKQKIIFNNQELFDLKRAIDDKDSQTNSQLFNYFRDKAFPNLSARQLGVMPDLVLDMFINGYYLNVFKTQSTDVNRPYQDPDKRGGIFDDVFGKGDQTTLLTARHDLKNLGLEDISTIIKQELRNGRALALSHTYANVSISHVINLWGADFNAEGNLSAIYVTDSDANNSIGMKKYKVGYNAHGRVAISAKKIEGENIGAQVLGLFTLSSGKDIWQKLSLEHHHHHH
B7: PRT-52 (protein)
chain: MANQEIRYSEVTPYHVTSVWTKGVTPPANFTQGEDVFHAPYVANQGWYDINKTFNGGDDLLCGAATAGNMLHWWFDQNKEYIDRYLKEHPEKQKINFNGEQMFDVKEAIDTKNSQTDSKLFEYFKEKAFPYLSTKHLGVFPDLVIDMFINGYRLSLTNHGPTPVKEGSKDPRGGFFDAVFTRGDQSKLLTSRHDFKEKNYNEISDLIKKELKEGKALGLSHTYANVRINHVINLWGADFDSNGNLKAIYVTDSDSNASVGMKKYFVGVNSAGKVAISAKEIKEDNIGAQVLGLFTLSTGQDSWNQTN
B8: PRT-53 (protein)
chain: MANQEIRYSEVTPYHVTSVWTKGVTPPANFTQGEDVFHAPYVANQGWYDITKTFNGKDDLLCGAATAGNMLHWWFDQNKDQIDRYLEEHPEKQKINFNGEQMFDVKEAIDTKNDQLDSKLFEYFKEKAFPYLSTKHLGVFPDLVIDMFINGYRLSLTNHGPTPVKEGSKDPRGGIFDAVFTRGDQSKLLTSRHDFKEKNLKEISDLIKKELTEGKALGLSHTYANVRINHVINLWGADFDSNGNLKAIYVTDSDSNASIGMKKYFVGVNSAGKVAISAKEIKEDNIGAQVLGLFTLSTGQDSWNQTN
B9: PRT-64 (protein)
chain: B8 chain with D114H, L143H
B10: PRT-63 (protein)
chain: B8 chain with D80E, D83K, E87K, D114H, L143H, I145L, A178D
B11: PRT-59 (protein)
chain: B8 chain with D83K, D114H, L143H, I175F
B12: PRT-55 (protein)
chain: B8 chain with Q93A, D114H, I175F, T181G
B13: PRT-60 (protein)
chain: B8 chain with D83K, Q93A, D114H, L143H, T181G
B14: PRT-54 (protein)
chain: B8 chain with D114H, I175F
B15: PRT-61 (protein)
chain: B8 chain with T51N, D80E, Q81Y, D83K, D114H, L143H, I145L, I259V
B16: PRT-4 (protein)
chain: B8 chain with D80E, D83E, E87K, N113D, D114S, L143H, G218A, S302I
B17: PRT-62 (protein)
chain: B8 chain with D83K, D114H, L143H, T181G

Target: pooled human IgG

| Protein | Enzyme Activity Endpoint Assay: Fab′2 [ng/µL] | Enzyme Activity Endpoint Assay: Fc [ng/µL] | Enzyme Activity Endpoint Assay: IgG [ng/µL] | Enzyme Activity Endpoint Assay: scIgG [ng/µL] | Enzyme Activity Endpoint Assay (purified): Fab′2 [ng/µL] | Enzyme Activity Endpoint Assay (purified): Fc [ng/µL] | Enzyme Activity Endpoint Assay (purified): IgG [ng/µL] | Enzyme Activity Endpoint Assay (purified): scIgG [ng/µL] |
| --- | --- | --- | --- | --- | --- | --- | --- | --- |
| B1 | 0 | 11 | 118 | 0 |  |  |  |  |
| B2 |  |  |  |  | 0 | 13 | 125 | 3 |
| B3 |  |  |  |  | 0 | 52 | 44 | 55 |
| B4 |  |  |  |  | 0 | 9 | 125 | 1 |
| B5 |  |  |  |  | 936 | 478 | 0 | 0 |
| B6 |  |  |  |  | 56 | 0 | 39 | 0 |
| B7 | 0 | 12 | 122 | 0 |  |  |  |  |
| B8 | 7 | 84 | 9 | 61 |  |  |  |  |
| B9 |  |  |  |  | 50 | 123 | 16 | 17 |
| B10 |  |  |  |  | 44 | 120 | 13 | 19 |
| B11 |  |  |  |  | 6 | 70 | 8 | 56 |
| B12 |  |  |  |  | 0 | 70 | 19 | 57 |
| B13 |  |  |  |  | 52 | 133 | 16 | 16 |
| B14 | 0 | 24 | 110 | 10 |  |  |  |  |
| B15 |  |  |  |  | 0 | 55 | 52 | 50 |
| B16 | 21 | 97 | 23 | 42 |  |  |  |  |
| B17 |  |  |  |  | 15 | 94 | 8 | 56 |
